The data set is described as follows: protein stability index of a GFP-peptide fusion (GPS, HEK-293T) (PSI 1-6); higher = more stable.
Setting [1] is: treatment: DMSO, c terminus: a fixed tail appended.
[2] abbreviates: treatment: MLN4924 1 uM, 8 h, c terminus: a fixed tail appended.

The values below come from the supplement of paper PMC10567573.

± gives the standard deviation.
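Note: 24-mer peptide tiles fused after GFP, lentivirally expressed, FACS-sorted into six equal bins by GFP/DsRed ratio, decoded by Illumina sequencing, PSI is the read-weighted mean bin number.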

The sequence EKHPKKPEPQQKAPLVPPPPPPPP [SRPK2] came in with a protein stability index under setting [1] of 5.42 ± 0.22 and a protein stability index under setting [2] of 5.47 ± 0.09.

Turning to RLLDHQDNILSLINVNDLSFVTGS [WDR41], the protein stability index runs as follows: under setting [1], 2.22 ± 0.28; under setting [2], 2.51 ± 0.3.

As for TGGAAGAGGAGRGEDEENREHRVR [KCTD13], the protein stability index is, setting by setting: under setting [1], 5.24 ± 0.26; under setting [2], 5.53 ± 0.32.

For the sequence ASSGSNSSASSEQGLLGRSPPTRP [SPRY1], the protein stability index is 5.19 ± 0.34 under setting [1] and 5.38 ± 0.2 under setting [2].

Turning to LSFSGSDVQNKLKESAQCVGDEFL [SNX8], the protein stability index amounted to 4.48 ± 0.2 under setting [1] and 4.49 ± 0.21 under setting [2].

With HSLQQSEPDLRHLVLVVNTLRRIQ [SERTAD1], the protein stability index runs as follows: under setting [1], 2.44 ± 0.33; under setting [2], 2.61 ± 0.17.

LQLQKGSDTEAQCEVMQEIVDQVL [INTS3]: the protein stability index under setting [1] is 3.63 ± 0.35 and the protein stability index under setting [2] stood at 3.93 ± 0.19.

With NRDSYFYAAIVAVVAVHVVLALFV [VMA21], the protein stability index reads like this: under setting [1], 2.3 ± 0.16; under setting [2], 2 ± 0.2.

As for QPGAGFGMPPAGTGMPMMPQQPVM [SNAP91], the protein stability index is 3.71 ± 0.26 under setting [1] and 3.84 ± 0.3 under setting [2].

Sequence EVIVFGGCANNLLVHHRAAHSNEI [KLHDC2] had a protein stability index under setting [1] of 2.13 ± 0.19 and a protein stability index under setting [2] of 2.2 ± 0.26.

With SRPQSSRPVLLSKIEGHQDAVTAA [WDFY1], the protein stability index reads like this: under setting [1], 4.28 ± 0.33; under setting [2], 4.3 ± 0.35.

The sequence PIIVVPDPPSSSEECPAHLLEDPL [RHOBTB2] showed a protein stability index under setting [1] of 5.2 ± 0.1 and a protein stability index under setting [2] of 4.81 ± 0.3.

With RLGRCMRRLRDMVERPHSGLPGKV [KCNG1], the protein stability index reads like this: under setting [1], 2.4 ± 0.17; under setting [2], 2.69 ± 0.24.

Turning to IKAEPASPDSPKGSSETETEPPVA [ESRRA], the protein stability index by setting is: under setting [1], 5.58 ± 0.17; under setting [2], 5.62 ± 0.11.

As for NDEIEEVRLQSIHTMRKISNNITL [INTS4], the protein stability index by setting is: under setting [1], 3.75 ± 0.23; under setting [2], 3.69 ± 0.18.

Consider DAFPVHRVMMASASDYFKAMFTGG [KLHL13], for which the protein stability index reads like this: under setting [1], 2.21 ± 0.38; under setting [2], 2.26 ± 0.23.

Regarding QFILERGEYPRWDAWSGSNAYHIE [CRYBA1], the protein stability index runs as follows: under setting [1], 2.31 ± 0.17; under setting [2], 2.19 ± 0.18.

As to VSPGPSRSFKEELLCAVCYDPFRD [TRIM35], the protein stability index reads like this: under setting [1], 2.79 ± 0.21; under setting [2], 2.91 ± 0.27.

In the case of PVIKIPECPSMGTNEAACLLDNPL [RHOBTB1], the protein stability index reads like this: under setting [1], 4.33 ± 0.16; under setting [2], 4.41 ± 0.24.

In turn, TSEVDKRRTRPRHHHGRSRPDRSS [CHGB] returned a protein stability index under setting [1] of 5.07 ± 0.37 and a protein stability index under setting [2] of 5.06 ± 0.31.

Take TNGSFSPSGNNGSVNWRTGSFHGP [DLC1]: the protein stability index by setting is: under setting [1], 3.09 ± 0.3; under setting [2], 3.11 ± 0.23.

With SSFLSFAELFSYVLQDRAAKGSLG [FEM1A], the protein stability index amounted to 2.58 ± 0.35 under setting [1] and 2.55 ± 0.81 under setting [2].

On to IALGQMLSLCICGTAITSQYLAER [SLC35F2], for which the protein stability index was determined as 3.37 ± 0.27 under setting [1] and 2.48 ± 0.16 under setting [2].

With FLPEKKDTGVFAVVNSHSLSLLGK [SLC22A15], the protein stability index under setting [1] was 2.57 ± 0.39 and the protein stability index under setting [2] was determined as 2.83 ± 0.52.

For MAAQRNRSKESKDCSGLVLLCLFF [PCDHGA10], the protein stability index reads like this: under setting [1], 2.29 ± 0.27; under setting [2], 1.83 ± 0.32.

In the case of FGVAGRSCQEVLRKGCLRFQLPER [DFFB], the protein stability index runs as follows: under setting [1], 2.33 ± 0.24; under setting [2], 2.25 ± 0.12.

On to IEEGFNPVQASQLEEEFDSDSGLS [NFE2L1], for which the protein stability index was found to be 5.37 ± 0.25 under setting [1] and 5.44 ± 0.16 under setting [2].

On to KLLLFLSTELQASQILQNKKHKNS [FAM98B], for which the protein stability index by setting is: under setting [1], 2.98 ± 0.75; under setting [2], 2.5 ± 1.1.

With NFIVNDSRKKPIWNVLMWTSLFLG [SOAT1], the protein stability index is 2.08 ± 0.14 under setting [1] and 2.2 ± 0.45 under setting [2].

Regarding SGEVLNGAAVVRPPGHHAEQDAAC [HDAC6], the protein stability index was determined as 5.32 ± 0.31 under setting [1] and 5.13 ± 0.14 under setting [2].

In the case of GRAVEHAMFLGDAAAHWYGGAEMR [MYORG], the protein stability index came out at 2.87 ± 0.34 under setting [1] and 3.14 ± 0.27 under setting [2].

For the sequence SALEEAFRRFAVHGDARATGREMH [TPPP], the protein stability index was 3.22 ± 0.38 under setting [1] and 3.12 ± 0.12 under setting [2].

With LRAEEIETRVTSGSMEALNLKQLR [PPFIA4], the protein stability index under setting [1] is 4.32 ± 0.28 and the protein stability index under setting [2] is 4.58 ± 0.57.

In the case of YLSCLEELMKCQIIYPRQQLLTLR [TRIP13], the protein stability index was 2.68 ± 0.68 under setting [1] and 2.69 ± 0.36 under setting [2].

As for QITVKALPKPPGTPVVTESTATSI [PTPRD], the protein stability index reads like this: under setting [1], 4.62 ± 0.29; under setting [2], 4.61 ± 0.091.

As to QQRLAHLEDKLRLLAQARDEAQGA [LRRC45], the protein stability index runs as follows: under setting [1], 4.29 ± 0.28; under setting [2], 4.37 ± 0.36.

Turning to GPAVVCGTPTSHVYMFKNGSGDSG [LYSMD4], the protein stability index under setting [1] turned out to be 3.7 ± 0.12 and the protein stability index under setting [2] came out at 3.65 ± 0.33.

KMGSYYINRTFFFDVHPPLGKMLI [POMT2]: the protein stability index under setting [1] is 2.95 ± 0.75 and the protein stability index under setting [2] is 3 ± 0.46.

In turn, LVRETDELRRNHCFQDFKEEKPQE [ELOA2] displayed a protein stability index under setting [1] of 4.28 ± 0.24 and a protein stability index under setting [2] of 4.41 ± 0.28.

As for VGDIVSFMHSFEEKYGRAHPVFYQ [FAF2], the protein stability index runs as follows: under setting [1], 2.04 ± 0.34; under setting [2], 2.17 ± 0.22.

In the case of ELLDEKLLARGTMQPFNYVTLQCL [FEM1A], the protein stability index is, setting by setting: under setting [1], 2.56 ± 0.41; under setting [2], 2.44 ± 0.57.

LTFGPDSRHCPQLPPPCAALWCSG [ADAMTS4]: the protein stability index by setting is: under setting [1], 2.29 ± 0.36; under setting [2], 2.46 ± 0.32.

For the sequence FAKAKPEIPWTSLTRKGLVRVVFF [PHTF1], the protein stability index was determined as 3.41 ± 0.51 under setting [1] and 3.29 ± 0.84 under setting [2].

In turn, MKIKQDRASRTYELQNQLAACTRA [FSD1] showed a protein stability index under setting [1] of 3.52 ± 0.12 and a protein stability index under setting [2] of 3.62 ± 0.38.

With FIGEESVAAGEKSILTDNPTWIID [IMPA1], the protein stability index is, setting by setting: under setting [1], 2.82 ± 0.46; under setting [2], 3.38 ± 0.28.

With EMIITKAGRRMFPSYKVKVTGLNP [TBX5], the protein stability index is 2.12 ± 0.14 under setting [1] and 2.4 ± 0.32 under setting [2].

Regarding TEKKQTKVEFPEARIYEETLNILL [KCTD10], the protein stability index reads like this: under setting [1], 2.12 ± 0.1; under setting [2], 2.23 ± 0.33.

QLYGDAPGEVVPSGESGLRRRGSD [TMEM40]: the protein stability index was 5.13 ± 0.18 under setting [1] and 5.19 ± 0.25 under setting [2].

With QAEKRAAEKVSEARKRKNRRLKQA [ATP6V1G1], the protein stability index was determined as 5.47 ± 0.51 under setting [1] and 5.33 ± 0.41 under setting [2].

On to LLRREPAERLTATGILLHPWLRQD [TRIB3], for which the protein stability index is, setting by setting: under setting [1], 2.47 ± 0.27; under setting [2], 2.45 ± 0.25.

In the case of RAWEVDWFSLASVIFLLLFAPFIV [DHCR7], the protein stability index by setting is: under setting [1], 2.43 ± 0.45; under setting [2], 2.65 ± 0.57.

As to AVSQPFRLSSSLQGSAVTLKTSKM [CDC14A], the protein stability index was found to be 3.77 ± 0.3 under setting [1] and 3.71 ± 0.28 under setting [2].

As for DGTSPLNTVERYNPQENRWHTIAP [KLHL20], the protein stability index runs as follows: under setting [1], 4.12 ± 0.26; under setting [2], 4.26 ± 0.35.

The sequence PLEYQFKSQIMSLSHSPQEDWVLL [TLE6] came in with a protein stability index under setting [1] of 2.26 ± 0.29 and a protein stability index under setting [2] of 2.37 ± 0.4.

In the case of TSITLTASRVSKVNDKRRKKSGEK [KMT2E], the protein stability index runs as follows: under setting [1], 4.04 ± 0.28; under setting [2], 4.47 ± 0.17.

As to LWDTSGQGRFCTIFRSYSRGAQGI [RAB40C], the protein stability index under setting [1] was 2.39 ± 0.41 and the protein stability index under setting [2] turned out to be 2.31 ± 0.37.

Turning to KNATRETTSTLKAWLNEHRKNPYP [IRX6], the protein stability index is, setting by setting: under setting [1], 3.14 ± 0.23; under setting [2], 3.37 ± 0.33.

As to DCARRILAREGVAAFYKGYVPNML [SLC25A25], the protein stability index reads like this: under setting [1], 2.12 ± 0.11; under setting [2], 2.11 ± 0.29.

GGLQKMVALLNKTNVKFLAITTDC [CTNNB1]: the protein stability index under setting [1] was determined as 2.73 ± 0.61 and the protein stability index under setting [2] came to 2.45 ± 0.46.

Consider VPSAVRCLQKRGSATSSSNTSLT [FSD1], for which the protein stability index reads like this: (treatment: DMSO, c terminus: native) 4.34 ± 0.13; (treatment: MLN4924 1 uM, 8 h, c terminus: native) 4.43 ± 0.082.

As for IGIEAKNLASYDVCSILLGTSTLL [MCOLN1], the protein stability index runs as follows: under setting [1], 2.84 ± 0.7; under setting [2], 2.92 ± 0.66.

PGEGLLISWAFTDRPDLSLTVLPK [C2CD2L]: the protein stability index is, setting by setting: under setting [1], 2.64 ± 0.48; under setting [2], 2.37 ± 0.44.
